Measurements published in US20250042963A1, “METHODS FOR TREATING MYELOPROLIFERATIVE DISORDERS” (Acceleron Pharma Inc., priority 2015, published 2025).
Values belong to the molecule of their own block, whether it stands above or below them.

What was measured:
[1] = system: myelofibrosis patients; conditions: anemic myelofibrosis patients; cited from earlier work
[2] = system: patients with a myeloproliferative disorder; conditions: cited from earlier work; for toxicity: patients with splenomegaly
[3] = target: T1, human TGFβ1 (Homo sapiens, UniProt P01137); test: Reporter gene assay in A549 cells (pGL3(CAGA)12), inhibition of TGFβ1 activity; type: cell-based; conditions: for IC50: A549 reporter gene assay, hTGFβ1 640 pg/ml; for inhibition of TGFβ1 activity / signaling (in words): cell-based reporter assay
T1 construct: purchased PeproTech
Text: (§1) A reporter gene assay in A549 cells was used to determine the ability of hTβRII-hFc variants to inhibit activity of TGFβ1, TGFβ2, and TGFβ3. This assay is based on a human lung carcinoma cell line transfected with a pGL3(CAGA)12 reporter plasmid (Dennler et al., 1998, EMBO 17: 3091-3100) as well as a Renilla reporter plasmid (pRLCMV) to control for transfection efficiency. The CAGA motif is present in the promoters of TGFβ-responsive genes (for example, PAI-1), so this vector is of general use for factors signaling through SMAD2 and SMAD3.
(§2) On the first day of the assay, A549 cells (ATCC®: CCL-185™) were distributed in 48-well plates at 6.5×10^4 cells per well. On the second day, a solution containing 10 μg pGL3(CAGA)12, 100 ng pRLCMV, 30 μl X-tremeGENE 9 (Roche Applied Science), and 970 μl OptiMEM (Invitrogen) was preincubated for 30 min, then added to Eagle's minimum essential medium (EMEM, ATCC®) supplemented with 0.1% BSA, which was applied to the plated cells (500 μl/well) for incubation overnight at […]. On the third day, medium was removed, and cells were incubated overnight at 37° C. with a mixture of ligands and inhibitors prepared as described below.
(§3) Serial dilutions of test articles were made in a 48-well plate in a 200 μl volume of assay buffer (EMEM+0.1% BSA). An equal volume of assay buffer containing the test ligand was added to obtain a final ligand concentration equal to the EC50 determined previously. Human TGFβ 1, human TGFβ2, and human TGFβ3 were obtained from PeproTech. Test solutions were incubated at 37° C. for 30 minutes, then 250 μl of the mixture was added to all wells. Each concentration of test article was determined in duplicate. After incubation with test solutions overnight, cells were rinsed with phosphate-buffered saline, then lysed with passive lysis buffer (Promega E1941) and stored overnight at −70° C. On the fourth and final day, plates were warmed to room temperature with gentle shaking. Cell lysates were transferred in duplicate to a chemiluminescence plate (96-well) and analyzed in a luminometer with reagents from a Dual-Luciferase Reporter Assay system (Promega E1980) to determine normalized luciferase activity.

[4] = target: T2, human TGFβ3 (Homo sapiens, UniProt P10600); test: Reporter gene assay in A549 cells (pGL3(CAGA)12), inhibition of TGFβ3 activity; type: cell-based; conditions: for inhibition of TGFβ3 activity / signaling (in words): cell-based reporter assay; for IC50: A549 reporter gene assay, hTGFβ3 270 pg/ml
T2 construct: purchased PeproTech
T2 sequence (P10600 301-412 limits assumed): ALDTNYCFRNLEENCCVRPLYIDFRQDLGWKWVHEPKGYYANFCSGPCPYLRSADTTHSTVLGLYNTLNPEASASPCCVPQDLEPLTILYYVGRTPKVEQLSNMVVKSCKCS
Text: as §1, with “efficiency.” for “efficiency. The CAGA motif is present in the promoters of TGFβ-responsive genes (for example, PAI-1), so this vector is of general use for factors signaling through SMAD2 and SMAD3.”
as §2
as §3, with “An equal volume of assay buffer containing the test ligand was added to obtain a final ligand concentration equal to the EC50 determined previously.” left out

[5] = target: T3, human TGFβ2 (Homo sapiens, UniProt P61812); test: Reporter gene assay in A549 cells (pGL3(CAGA)12), inhibition of TGFβ2 activity; type: cell-based; conditions: Summary of Ligand Selectivity; cell names the ligand in this class
T3 construct: purchased PeproTech
T3 sequence (P61812 303-414 limits assumed): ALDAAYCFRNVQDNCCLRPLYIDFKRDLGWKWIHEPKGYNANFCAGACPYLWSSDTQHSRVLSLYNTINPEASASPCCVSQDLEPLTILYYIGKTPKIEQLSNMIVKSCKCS
Text: as §1, §2, §3

[6] = Summary of Ligand Selectivity, cell names the ligand in this class
[7] = third experiment (C-terminal truncation, N70D)

T1 sequence (P01137 279-390 limits assumed): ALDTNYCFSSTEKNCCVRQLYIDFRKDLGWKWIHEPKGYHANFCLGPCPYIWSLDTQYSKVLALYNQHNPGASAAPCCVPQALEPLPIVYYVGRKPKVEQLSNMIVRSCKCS

Molecule: C#C[C@]1(O)CC[C@H]2[C@@H]3CCC4=Cc5oncc5C[C@]4(C)[C@H]3CC[C@@]21C [danazol]
- response rate / responses in anemia (% of patients) [1]: around 20%

Molecule: Nc1nc(Cl)nc2c1ncn2[C@H]1C[C@H](O)[C@@H](CO)O1 [cladribine]
- toxicity [2]: severe but reversible cytopenias
- spleen responses / response rate ([2]; symptomatic splenomegaly): up to 50%

Molecule: NC(=O)NO [HC, Hydroxycarbamide]
- patients with reductions in spleen size from 25%-50% ([2]; patients treated with HC): up to 35%
- toxicity [2]: exacerbate cytopenias

B2: TβRIIshort(23-159)-G2Fc: wild-type human TβRII short isoform ECD (23-159) fused to human IgG2 Fc; SEQ ID NO: 50, with TPA leader SEQ ID NO: 52 (protein)
chain: TIPPHVQKSVNNDMIVTDNNGAVKFPQLCKFCDVRFSTCDNQKSCMSNCSITSICEKPQEVCVAVWRKNDENITLETVCHDPKLPYHDFILEDAASPKCIMKEKKKPGETFFMCSCSSDECNDNIIFSEEYNTSNPDTGGGVECPPCPAPPVAGPSVFLFPPKPKDTLMISRTPEVTCVVVDVSHEDPEVQFNWYVDGVEVHNAKTKPREEQFNSTFRVVSVLTVVHQDWLNGKEYKCKVSNKGLPAPIEKTISKTKGQPREPQVYTLPPSREEMTKNQVSLTCLVKGFYPSDIAVEWESNGQPENNYKTTPPMLDSDGSFFLYSKLTVDKSRWQQGNVFSCSVMHEALHNHYTQKSLSLSPGK
- IC50 ([3]; first experiment (D110K)): 1.73 nM
- Degree of Ligand Inhibition: Potent (ligand TGFβ1) [3, 6]: TGFβ1
- IC50 ([4]; first experiment (D110K)): 0.14 nM
- Degree of Ligand Inhibition: Potent (ligand TGFβ3) [4, 6]: TGFβ3
- Degree of Ligand Inhibition: Negligible (ligand TGFβ2) [5]: TGFβ2

B3: TβRIIshort(23-153/N70D)-G2Fc: C-terminally truncated short-isoform ECD with N70D substitution fused to IgG2 Fc; SEQ ID NO: 41 (unprocessed), 61 (mature) (protein)
chain: TIPPHVQKSVNNDMIVTDNNGAVKFPQLCKFCDVRFSTCDNQKSCMSDCSITSICEKPQEVCVAVWRKNDENITLETVCHDPKLPYHDFILEDAASPKCIMKEKKKPGETFFMCSCSSDECNDNIIFSEEYTGGGVECPPCPAPPVAGPSVFLFPPKPKDTLMISRTPEVTCVVVDVSHEDPEVQFNWYVDGVEVHNAKTKPREEQFNSTFRVVSVLTVVHQDWLNGKEYKCKVSNKGLPAPIEKTISKTKGQPREPQVYTLPPSREEMTKNQVSLTCLVKGFYPSDIAVEWESNGQPENNYKTTPPMLDSDGSFFLYSKLTVDKSRWQQGNVFSCSVMHEALHNHYTQKSLSLSPGK
- IC50 [3, 7]: 17.7 nM
- inhibition of TGFβ1 activity / signaling (in words) [3]: greatly diminished ability to inhibit TGFβ1
- Degree of Ligand Inhibition: Potent (ligand TGFβ3) [4, 6]: TGFβ3
- inhibition of TGFβ3 activity / signaling (in words) [4]: virtually undiminished ability to inhibit TGFβ3
- Degree of Ligand Inhibition: Negligible (ligand TGFβ2) [5]: TGFβ2

B4: TβRIIshort(23-153)-G2Fc: C-terminally truncated (6 aa) short-isoform ECD fused to IgG2 Fc; SEQ ID NO: 37 (unprocessed), 59 (mature) (protein)
chain: TIPPHVQKSVNNDMIVTDNNGAVKFPQLCKFCDVRFSTCDNQKSCMSNCSITSICEKPQEVCVAVWRKNDENITLETVCHDPKLPYHDFILEDAASPKCIMKEKKKPGETFFMCSCSSDECNDNIIFSEEYTGGGVECPPCPAPPVAGPSVFLFPPKPKDTLMISRTPEVTCVVVDVSHEDPEVQFNWYVDGVEVHNAKTKPREEQFNSTFRVVSVLTVVHQDWLNGKEYKCKVSNKGLPAPIEKTISKTKGQPREPQVYTLPPSREEMTKNQVSLTCLVKGFYPSDIAVEWESNGQPENNYKTTPPMLDSDGSFFLYSKLTVDKSRWQQGNVFSCSVMHEALHNHYTQKSLSLSPGK
- IC50 [3, 7]: 2.62 nM
- IC50 [4, 7]: 0.14 nM

The remaining lines, values ahead:

- IC50 ([3]; first experiment (D110K)): > 73.6 nM
- inhibition of TGFβ1 activity / signaling (in words) [3]: loss of inhibition
- Degree of Ligand Inhibition: Moderate (ligand TGFβ3) [4, 6]: TGFβ3
- inhibition of TGFβ3 activity / signaling (in words) [4]: intermediate inhibition
- Degree of Ligand Inhibition: Negligible (ligand TGFβ2) [5]: TGFβ2
B1: TβRIIshort(23-159/D110K)-G2Fc: full-length short-isoform ECD with D110K substitution fused to IgG2 Fc; SEQ ID NO: 25 (unprocessed), 53 (mature) (protein)
chain: TIPPHVQKSVNNDMIVTDNNGAVKFPQLCKFCDVRFSTCDNQKSCMSNCSITSICEKPQEVCVAVWRKNDENITLETVCHDPKLPYHKFILEDAASPKCIMKEKKKPGETFFMCSCSSDECNDNIIFSEEYNTSNPDTGGGVECPPCPAPPVAGPSVFLFPPKPKDTLMISRTPEVTCVVVDVSHEDPEVQFNWYVDGVEVHNAKTKPREEQFNSTFRVVSVLTVVHQDWLNGKEYKCKVSNKGLPAPIEKTISKTKGQPREPQVYTLPPSREEMTKNQVSLTCLVKGFYPSDIAVEWESNGQPENNYKTTPPMLDSDGSFFLYSKLTVDKSRWQQGNVFSCSVMHEALHNHYTQKSLSLSPGK

- Degree of Ligand Inhibition: Moderate (ligand TGFβ1) [3, 6]: TGFβ1
- inhibition of TGFβ1 activity / signaling (in words) [3]: maintains some TGFβ1 inhibitor effects
- Degree of Ligand Inhibition: Negligible (ligand TGFβ3) [4, 6]: TGFβ3
- inhibition of TGFβ3 activity / signaling (in words) [4]: greatly diminished ability to inhibit
- Degree of Ligand Inhibition: Negligible (ligand TGFβ2) [5]: TGFβ2
B5: TβRIIshort(29-159)-G2Fc: N-terminally truncated (6 aa) short-isoform ECD fused to IgG2 Fc; SEQ ID NO: 29 (unprocessed), 55 (mature) (protein)
chain: QKSVNNDMIVTDNNGAVKFPQLCKFCDVRFSTCDNQKSCMSNCSITSICEKPQEVCVAVWRKNDENITLETVCHDPKLPYHDFILEDAASPKCIMKEKKKPGETFFMCSCSSDECNDNIIFSEEYNTSNPDTGGGVECPPCPAPPVAGPSVFLFPPKPKDTLMISRTPEVTCVVVDVSHEDPEVQFNWYVDGVEVHNAKTKPREEQFNSTFRVVSVLTVVHQDWLNGKEYKCKVSNKGLPAPIEKTISKTKGQPREPQVYTLPPSREEMTKNQVSLTCLVKGFYPSDIAVEWESNGQPENNYKTTPPMLDSDGSFFLYSKLTVDKSRWQQGNVFSCSVMHEALHNHYTQKSLSLSPGK

- Degree of Ligand Inhibition: Moderate (ligand TGFβ1) [3, 6]: TGFβ1
- inhibition of TGFβ1 activity / signaling (in words) [3]: maintains some TGFβ1 inhibitor effects
- Degree of Ligand Inhibition: Negligible (ligand TGFβ3) [4, 6]: TGFβ3
- inhibition of TGFβ3 activity / signaling (in words) [4]: greatly diminished ability to inhibit
- Degree of Ligand Inhibition: Negligible (ligand TGFβ2) [5]: TGFβ2
B6: TβRIIshort(35-159)-G2Fc: N-terminally truncated (12 aa) short-isoform ECD fused to IgG2 Fc; SEQ ID NO: 33 (unprocessed), 57 (mature) (protein)
chain: DMIVTDNNGAVKFPQLCKFCDVRFSTCDNQKSCMSNCSITSICEKPQEVCVAVWRKNDENITLETVCHDPKLPYHDFILEDAASPKCIMKEKKKPGETFFMCSCSSDECNDNIIFSEEYNTSNPDTGGGVECPPCPAPPVAGPSVFLFPPKPKDTLMISRTPEVTCVVVDVSHEDPEVQFNWYVDGVEVHNAKTKPREEQFNSTFRVVSVLTVVHQDWLNGKEYKCKVSNKGLPAPIEKTISKTKGQPREPQVYTLPPSREEMTKNQVSLTCLVKGFYPSDIAVEWESNGQPENNYKTTPPMLDSDGSFFLYSKLTVDKSRWQQGNVFSCSVMHEALHNHYTQKSLSLSPGK
